One experiment addresses HLA-A*02:06. The experiment in a line: IEDB peptide-MHC binding, purified MHC/competitive/radioactivity; filed as Kd, often an IC50 or EC50 that approximates it; ≥ and ≤ were set here for values at or beyond the usual limits of such assays.
For a further experiment, the target named is HLA-A*02:02. Described as above.
In another experiment the target is HLA-A*02:03. Described as above.
A further experiment addresses HLA-B*15:01. The experiment in a line: IEDB peptide-MHC binding, purified MHC/direct/fluorescence; filed as Kd, often an IC50 or EC50 that approximates it; ≥ and ≤ were set here for values at or beyond the usual limits of such assays.
The target in a further experiment is HLA-A*69:01. The description is as above.
The target in another experiment is HLA-A*02:01. The description is as above.
The next experiment deals with HLA-B*07:02. The description is as above. Particulars: source organism: Human herpesvirus 4 strain B95-8.
A further experiment addresses HLA-A*01:01. Described as above. As to conditions: source organism: Human immunodeficiency virus 1.
Another experiment has as its target HLA-B*58:01. Described as above.
A further experiment deals with HLA-A*11:01. The description is as above. As to conditions: source organism: SARS-CoV1.
Where [1] appears, read: source organism: Vaccinia virus WR.
[2] abbreviates: source organism: Vaccinia virus Copenhagen.
Where [3] appears, read: source organism: Shigella dysenteriae.
[4] abbreviates: source organism: Mammarenavirus juninense.
Where [5] appears, read: source organism: Human immunodeficiency virus 1.
The mark [6] stands for this setting: source organism: Yersinia pestis.
[7] abbreviates: source organism: Mammarenavirus brazilense.

For 33 sequences, Kd results are on record in the Immune Epitope Database (IEDB).

For the sequence FLFWFLKSGA, the values for the Kd in the experiment with HLA-A*02:06 (setting [1]), in the experiment with HLA-A*02:02 (setting [1]) and in the experiment with HLA-A*02:03 (setting [1]) were 22.8 nM, 1.07 nM and 0.584 nM, respectively.
For KLYIALCKV, the figures for the Kd in the experiment with HLA-A*02:06 (setting [2]), in the experiment with HLA-A*02:02 (setting [2]) and with HLA-A*02:03 (setting [2]) were 97 nM, 15.6 nM and 1.41 nM, respectively.
NMKPNFWSRI: the Kd is 13900 nM with HLA-A*02:06 (setting [1]), 1680 nM with HLA-A*02:02 (setting [1]) and 193 nM in the experiment with HLA-A*02:03 (setting [1]).
On to KQRGGYAQF, for which the Kd with HLA-B*15:01 (source organism: Mycobacterium tuberculosis variant bovis BCG str. Pasteur 1173P2) came out at 323 nM.
With TLARGFPFV, in the experiment with HLA-A*69:01 (source organism: West Nile virus), the Kd is at most 1 nM.
ALELGRKTL: the values for the dissociation constant Kd with HLA-A*69:01 (setting [3]) and in the experiment with HLA-A*02:01 (setting [3]) were at least 20000 nM and 8000 nM, respectively.
With LLNMRDLIVT, the dissociation constant (Kd) in the experiment with HLA-A*02:06 (setting [1]) was 707 nM; with HLA-A*02:02 (setting [1]), 1420 nM; with HLA-A*02:03 (setting [1]), 557 nM.
As to VPAPAGPIV, the dissociation constant Kd with HLA-A*69:01 (source organism: Human herpesvirus 4 strain B95-8) is 442 nM; with HLA-B*07:02 it was 23.4 nM.
As for SVDAMIHKT, the Kd was determined as 10600 nM with HLA-A*02:06 (setting [1]), 5020 nM with HLA-A*02:02 (setting [1]) and 3660 nM with HLA-A*02:03 (setting [1]).
The sequence FLQGAKWYL yielded a Kd in the experiment with HLA-A*69:01 (source organism: Mycobacterium tuberculosis) of 465 nM.
For the sequence IVAAVIIMA, the values for the dissociation constant (Kd) with HLA-A*02:06 (setting [1]), with HLA-A*02:02 (setting [1]) and in the experiment with HLA-A*02:03 (setting [1]) were 3570 nM, 10400 nM and 2660 nM, respectively.
With PLTGNNTITT, the Kd with HLA-A*02:06 (setting [1]) is at least 69800 nM; with HLA-A*02:02 (setting [1]), 7670 nM; with HLA-A*02:03 (setting [1]) it was at least 29500 nM.
On the same counts, the results for CLEAKTHFST are at least 69800 nM, 12400 nM and 11100 nM.
On the same counts, the results for VLQQNNSFI are 8680 nM, 100 nM and 249 nM.
Regarding YCNYTKFWYV, the dissociation constant Kd worked out at 6.54 nM with HLA-A*02:06 (setting [4]), 322 nM with HLA-A*02:02 (setting [4]) and 101 nM with HLA-A*02:03 (setting [4]).
Take GVEVRYIDI: the values for the Kd with HLA-A*02:06 (setting [1]), in the experiment with HLA-A*02:02 (setting [1]) and in the experiment with HLA-A*02:03 (setting [1]) were 10200 nM, 12000 nM and at least 45300 nM, respectively.
On to NSSKVSQNY, for which the values for the Kd in the experiment with HLA-A*01:01, in the experiment with HLA-B*58:01 (setting [5]) and with HLA-B*15:01 (setting [5]) were 41.2 nM, 742 nM and 301 nM, respectively.
As for LTDVEKRIL, the Kd was at least 77100 nM with HLA-A*02:06 (setting [1]), at least 27400 nM with HLA-A*02:02 (setting [1]) and at least 28500 nM with HLA-A*02:03 (setting [1]).
For SMMVILPDKI, the figures for the Kd with HLA-A*02:06 (setting [1]), with HLA-A*02:02 (setting [1]) and in the experiment with HLA-A*02:03 (setting [1]) were 5.67 nM, 28.3 nM and 19.2 nM, respectively.
In turn, GLENGLNYI displayed an equilibrium dissociation constant (Kd) in the experiment with HLA-A*02:01 (source organism: Homo sapiens) of 825 nM.
Consider FMHSAAPIT, for which the equilibrium dissociation constant (Kd) in the experiment with HLA-A*69:01 (setting [6]) was determined as 7660 nM; with HLA-B*15:01 (setting [6]), 1920 nM; in the experiment with HLA-A*02:01 (setting [6]) it was 216 nM.
Consider YLSKEDRII, for which the Kd with HLA-A*02:06 (setting [1]) was 10500 nM; in the experiment with HLA-A*02:02 (setting [1]), 305 nM; with HLA-A*02:03 (setting [1]), 435 nM.
As for DILQMREIIT, the Kd with HLA-A*02:06 (setting [1]) is 17700 nM; with HLA-A*02:02 (setting [1]) it was at least 45500 nM; in the experiment with HLA-A*02:03 (setting [1]) it was at least 56200 nM.
GMSIVCIVA: the Kd with HLA-A*02:06 (setting [1]) was 4510 nM; with HLA-A*02:02 (setting [1]) it was 190 nM; with HLA-A*02:03 (setting [1]), 656 nM.
Taken in the same sequence, the figures for STVDVRNIVT were 1570 nM, 3060 nM and 11600 nM.
As for MVDVSMMSM, the Kd in the experiment with HLA-A*02:06 (setting [1]) came out at 101 nM; in the experiment with HLA-A*02:02 (setting [1]) it was 559 nM; in the experiment with HLA-A*02:03 (setting [1]) it was 1160 nM.
Take LSNCVHPAV: the Kd with HLA-A*02:06 (setting [7]) was found to be 461 nM; with HLA-A*02:02 (setting [7]), 427 nM; with HLA-A*02:03 (setting [7]), 1100 nM.
For GIFVDTMSI, the results for the Kd in the experiment with HLA-A*02:06 (setting [1]), with HLA-A*02:02 (setting [1]) and with HLA-A*02:03 (setting [1]) were 1620 nM, 2880 nM and 936 nM, respectively.
Taken in the same sequence, the figures for IIGEPIIVA were 1350 nM, 2320 nM and 4780 nM.
Taken in the same sequence, the figures for FISIYSRPKI were 396 nM, 22.8 nM and 102 nM.
On to SALNHTKKW, for which the values for the dissociation constant Kd with HLA-A*11:01 and in the experiment with HLA-B*58:01 (source organism: SARS-CoV1) were 17.1 µM and 350 nM, respectively.
For the sequence IVNTTYDFL, the Kd with HLA-A*02:06 (setting [1]) was 2990 nM; in the experiment with HLA-A*02:02 (setting [1]) it was 1880 nM; with HLA-A*02:03 (setting [1]), 4680 nM.
With RTRCKYVGCT, the Kd in the experiment with HLA-A*02:06 (setting [1]) stood at 11600 nM; in the experiment with HLA-A*02:02 (setting [1]), 149 nM; with HLA-A*02:03 (setting [1]), 12300 nM.

The term Kd denotes the concentration at which binding is half-saturated.
